The assay addresses dHtt-eGFP fusion protein (Drosophila Huntingtin with a C-terminal eGFP tag) (Drosophila). Briefly: affinity purification with mass spectrometry.

With “CG8134/dHap40 (Drosophila HAP40), endogenous ~40 kDa protein (from UniProt Q9VXR6 1-345) (natural protein)”, the stoichiometry N (as a rule, a count of units in the complex or per binding partner) worked out at 1 molar ratio.

The values above are taken from doi:10.1101/2020.05.27.119552.
